In publication PMC4988983 one finds stoichiometry N data, which are given here for two substances.

The target of assay [1] is 2-Cys peroxiredoxin from Anabaena sp. PCC 7120 (Anabaena sp. PCC 7120 (endogenous in Anabaena cells)). The assay is described as follows: non-reducing SDS-PAGE with Western blot; soluble extracts of Anabaena WT and ΔntrC cells treated with H2O2, methyl viologen or high light; dimer and monomer bands of 2-Cys Prx. For orientation: A western blot detects proteins with antibodies after separation by electrophoresis.

Assay [2] has the same target. Nature of the assay: SEC; soluble extracts (200 µg total protein) of untreated Anabaena cells (0 h) on Superdex 200 HR 10/30, 50 mM KH2PO4 pH 7.1, 150 mM NaCl, 0.5 ml/min; fractions read by Western blot. A general note: In gel filtration, larger molecules generally elute earlier.
For assay [3], the target named is NADPH-thioredoxin reductase C from Anabaena sp. PCC 7120 (Anabaena sp. PCC 7120 (endogenous in Anabaena cells)). Described as above.

Usually stoichiometry N stands for a count of units in the complex or per binding partner.

“2-Cys peroxiredoxin from Anabaena sp. PCC 7120 (enzyme)”: the stoichiometry N in assay [1] and in assay [2] was 2 each time.
The substance “NADPH-thioredoxin reductase C from Anabaena sp. PCC 7120 (enzyme)” displayed a stoichiometry N in assay [3] of 2.
